Laboratory results from patent publication US7183387 (Genentech, dated 2007).
Positions count from the first letter of the chain named. Numbers in names are those of the source.

Experiments:
[1] = biological target: T1, human neonatal Fc receptor (FcRn), biotinylated (human, UniProt P55899 24-297; P61769 21-119, biotinylated (biotin-X-NHS)); assay: FcRn ELISA
T1 construct: captured on streptavidin plates
Method: FcRn Binding ELISA: For measuring FcRn binding activity of IgG variants, ELISA plates were coated with 2 µg/ml streptavidin (Zymed, South San Francisco) in 50 mM carbonate buffer, pH 9.6, at 4° C. overnight and blocked with PBS-0.5% BSA, pH 7.2 at room temperature for one hour. Biotinylated FcRn (prepared using biotin-X-NHS from Research Organics, Cleveland, Ohio and used at 1–2 µg/ml) in PBS-0.5% BSA, 0.05% polysorbate 20, pH 7.2, was added to the plate and incubated for one hour. Two fold serial dilutions of IgG standard (1.6–100 ng/ml) or variants in PBS-0.5% BSA, 0.05% polysorbate 20, pH 6.0, were added to the plate and incubated for two hours. Bound IgG was detected using peroxidase labeled goat F(ab')_2 anti-human IgG F(ab')_2 in the above pH 6.0 buffer (Jackson ImmunoResearch, West Grove, Pa.) followed by 3,3',5,5'-tetramethyl benzidine (Kirgaard & Perry Laboratories) as the substrate. […] Absorbance was read at 450 nm on a Vmax plate reader (Molecular Devices, Menlo Park, Calif.). Titration curves were fit with a four-parameter nonlinear regression curve-fitting program (KaleidaGraph, Synergy software, Reading, Pa.). Concentrations of IgG variants corresponding to the mid-point absorbance of the titration curve of the standard were calculated and then divided by the concentration of the standard corresponding to the mid-point absorbance of the standard titration curve.

[2] = biological target: T2, human FcγRIIA-H131 α subunit extracellular domain-6His-GST fusion (human, UniProt P12318 34-217); assay: ELISA, IgG:IgE hexamers on receptor-GST
T2 construct: also called FcγRIIA-His131; not shown: glutathione S-transferase (GST)
T2 sequence: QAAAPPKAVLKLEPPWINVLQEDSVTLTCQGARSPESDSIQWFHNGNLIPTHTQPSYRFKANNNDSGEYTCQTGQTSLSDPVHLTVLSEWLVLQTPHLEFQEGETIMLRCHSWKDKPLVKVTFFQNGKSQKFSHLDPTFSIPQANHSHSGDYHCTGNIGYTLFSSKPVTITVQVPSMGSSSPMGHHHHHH

[3] = biological target: T3, human FcγRIIA-R131 α subunit extracellular domain-6His-GST fusion (human, UniProt P12318 34-217); assay: ELISA, IgG:IgE hexamers on receptor-GST
T3 construct: also called FcγRIIA-Arg131; not shown: glutathione S-transferase (GST)
T3 sequence: T2 sequence with H134R

[4] = biological target: T4, human FcγRIIB α subunit extracellular domain-6His-GST fusion (human, UniProt P31994 43-217); assay: ELISA, IgG:IgE hexamers on receptor-GST
T4 construct: not shown: glutathione S-transferase (GST)
T4 sequence: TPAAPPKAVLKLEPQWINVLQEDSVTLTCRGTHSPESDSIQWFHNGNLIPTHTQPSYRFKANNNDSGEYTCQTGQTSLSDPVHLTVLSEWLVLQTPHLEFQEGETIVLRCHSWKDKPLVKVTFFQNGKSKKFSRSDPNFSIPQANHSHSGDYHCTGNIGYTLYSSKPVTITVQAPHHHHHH

[5] = biological target: T5, human FcγRIIIA-F158 α subunit extracellular domain-6His-GST fusion (human, UniProt P08637 17-208); assay: ELISA, IgG:IgE hexamers on receptor-GST
T5 construct: also called FcγRIIIA-Phe158; not shown: glutathione S-transferase (GST)

[6] = biological target: T6, human FcγRIIA-H131 α subunit extracellular domain-His6-GST fusion protein (human, UniProt P12318 34-217); assay: ELISA, IgG:IgE hexamer on coated FcγRIIA-H131-GST
T6 construct: also called FcγRIIA-His131; not shown: glutathione S-transferase (GST)
T6 sequence: T2 sequence

[7] = biological target: T7, human FcγRIIA-R131 α subunit extracellular domain-His6-GST fusion protein (human, UniProt P12318 34-217); assay: ELISA, IgG:IgE hexamer on coated FcγRIIA-R131-GST; separate assays run together with the H131 assays
T7 construct: ECD-6His-GST fusion made in 293 cells, coated on the plate; also called FcγRIIA-Arg131; not shown: glutathione S-transferase (GST)
T7 sequence: T2 sequence with H134R

[8] = biological target: T7, human FcγRIIA-R131 α subunit …; assay: ELISA, IgG:IgE hexamer on coated FcγRIIA-R131-GST; value said to be carried over from Table 6, 7 or 8
[9] = biological target: T6, human FcγRIIA-H131 α subunit …; assay: ELISA; binding ratio on FcγRIIA-H131 divided by that on FcγRIIA-R131
[10] = biological target: T8, human FcγRIIIA-Val158 α subunit extracellular domain-His6-GST fusion protein (human, UniProt P08637 17-208); assay: ELISA format, hexameric complex on FcγRIIIA-Val158
T8 construct: ELISA-format target; also called FcγRIIIA-V158; not shown: glutathione S-transferase (GST)

[11] = biological target: T9, human FcγRIIIA-Phe158 with human γ-chain on stably transfected CHO cells (human, UniProt P08637 17-254; P30273 19-86); assay: flow cytometry, monomeric IgG on CHO cells with FcγRIIIA-Phe158 α- and γ-chains
T9 construct: whole, on cells; CHO cells stably transfected with the α- and γ-chains of the receptor; also called FcγRIIIA-Phe158 (cell-based assay)
Method: CHO cell transfection was carried out using Superfect (Qiagen) according to the manufacturer's instructions. […] Receptor expression levels were determined by staining with anti-FcγRIII monoclonal antibody 3G8 (Medarex). Binding of IgG1 variants was performed by adding monomeric IgG in staining buffer to 5×10^5 cells and incubating in 96 well round-bottom tissue culture plates (Costar, Cambridge, Mass.) at 4° C. for 30 min. Cells were washed three times with staining buffer and IgG binding detected by addition of 1:200 PE-F(ab')_2 fragment of goat anti-human IgG and incubation for 30 min at 4° C. After washing, immunofluorescence staining was analyzed on a FACScan flow cytometer using Cellquest software (Becton Dickinson). Dead cells were excluded from analysis by addition of 1 μg/ml propidium iodide.
For FcγRIIIA, the selected variants were assayed in the ELISA-format as well as on stable-transfected CHO cell lines expressing the γ-chains (FcγRIIIA-Phe158 or FcγRIIIA-Val158) with the associated human α-chain.

[12] = biological target: T10, human FcγRIIIA-Phe158 α subunit extracellular domain-His6-GST fusion protein (human, UniProt P08637 17-208); assay: ELISA, IgG:IgE hexamer on coated FcγRIIIA-Phe158-GST; value carried over from an earlier table (printed in Table 8)
T10 construct: ELISA-format target; also called FcγRIIIA-F158; not shown: glutathione S-transferase (GST)

[13] = biological target: T10, human FcγRIIIA-Phe158 α subunit …; assay: ELISA format, hexameric complex on FcγRIIIA-Phe158; separate assays run together with the Val158 assays
[14] = biological target: T11, human FcγRIIIA-Val158 with human γ-chain on stably transfected CHO cells (human, UniProt P08637 17-254; P30273 19-86); assay: flow cytometry, monomeric IgG on CHO cells with FcγRIIIA-Val158 α- and γ-chains
T11 construct: whole, on cells; CHO cells stably transfected with the α- and γ-chains of the receptor; also called FcγRIIIA-Val158 (cell-based assay); FcγRIIIA-V158
T11 sequence (P08637 17-254 F176V, chain 1 of 2): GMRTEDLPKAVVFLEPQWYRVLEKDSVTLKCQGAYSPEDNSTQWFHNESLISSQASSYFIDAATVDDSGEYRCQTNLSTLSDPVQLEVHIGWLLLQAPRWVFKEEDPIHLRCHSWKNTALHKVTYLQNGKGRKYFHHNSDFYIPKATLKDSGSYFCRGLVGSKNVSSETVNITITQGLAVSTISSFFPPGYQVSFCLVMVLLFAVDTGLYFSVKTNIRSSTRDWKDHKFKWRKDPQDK
T11 sequence (P30273 19-86, chain 2 of 2): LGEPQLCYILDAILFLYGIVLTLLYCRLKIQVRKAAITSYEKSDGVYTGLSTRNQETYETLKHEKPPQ

T10 sequence (P08637 other isoform, or with tags, fused parts or gaps, form in doubt): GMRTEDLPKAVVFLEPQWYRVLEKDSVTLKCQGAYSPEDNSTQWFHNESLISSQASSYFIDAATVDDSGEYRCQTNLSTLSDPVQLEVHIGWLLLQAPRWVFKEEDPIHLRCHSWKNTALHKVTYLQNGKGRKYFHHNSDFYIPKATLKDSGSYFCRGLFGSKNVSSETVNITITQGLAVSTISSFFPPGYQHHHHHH
T8 sequence (P08637 other isoform, or with tags, fused parts or gaps, form in doubt): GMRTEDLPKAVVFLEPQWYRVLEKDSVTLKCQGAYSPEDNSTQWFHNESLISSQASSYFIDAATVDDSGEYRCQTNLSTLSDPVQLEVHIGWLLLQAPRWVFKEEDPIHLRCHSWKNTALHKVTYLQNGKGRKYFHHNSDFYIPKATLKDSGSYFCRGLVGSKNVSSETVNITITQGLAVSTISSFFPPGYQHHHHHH
T9 sequence (P08637 17-254, chain 1 of 2): as the sequence (P08637 17-254 F176V, chain 1 of 2) above, with V160F counted along it
T9 sequence (P30273 19-86, chain 2 of 2): as the sequence (P30273 19-86, chain 2 of 2) above
T1 sequence (P55899 24-297 limits assumed, chain 1 of 2): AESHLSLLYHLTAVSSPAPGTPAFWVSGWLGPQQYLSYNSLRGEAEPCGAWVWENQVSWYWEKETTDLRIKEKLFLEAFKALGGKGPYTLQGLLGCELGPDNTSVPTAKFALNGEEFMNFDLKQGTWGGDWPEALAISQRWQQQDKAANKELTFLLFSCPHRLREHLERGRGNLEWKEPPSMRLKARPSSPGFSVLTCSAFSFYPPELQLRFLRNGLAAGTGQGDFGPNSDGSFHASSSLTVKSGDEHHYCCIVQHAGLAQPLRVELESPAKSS
T1 sequence (P61769 21-119 limits assumed, chain 2 of 2): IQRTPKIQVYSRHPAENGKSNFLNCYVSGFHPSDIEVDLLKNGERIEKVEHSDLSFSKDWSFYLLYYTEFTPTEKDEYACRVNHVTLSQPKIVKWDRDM

B1: anti-IgE E27 IgG1 T307Q (antibody)
heavy: not shown
light: DIQLTQSPSSLSASVGDRVTITCRASKPVDGEGDSYLNWYQQKPGKAPKLLIYAASYLESGVPSRFSGSGSGTDFTLTISSLQPEDFATYYCQQSHEDPYTFGQGTKVEIKRTVAAPSVFIFPPSDEQLKSGTASVVCLLNNFYPREAKVQWKVDNALQSGNSQESVTEQDSKDSTYSLSSTLTLSKADYEKHKVYACEVTHQGLSSPVTKSFNRGEC
- binding result [1]: binds

B2: E27 IgG1 variant S267(280)G (antibody)
heavy: not shown
light: B1 light
notes: also called IG2 189
- ratio to native IgG1 [2]: 0.59
- ratio to native IgG1 [3]: 1.18
- ratio to native IgG1 [4]: 0.95
- ratio to native IgG1 [5]: 0.08

B3: anti-IgE E27 IgG1 variant Lys320Ala (antibody)
heavy: not shown
light: B1 light
notes: also called K320(339)A; IG2 48
- ratio of binding of the variant to that of native IgG1 [6]: 1.13 ratio (variant/native IgG1)
- ratio of binding of the variant to that of native IgG1 [7]: 1.05 ratio (variant/native IgG1)
- ratio of binding of the variant to that of native IgG1 [8]: 1.14 ratio (variant/native IgG1)
- H131/R131 [9]: 1.1 ratio (H131 value/R131 value)

B4: anti-IgE E27 IgG1 variant Ser298Ala/Glu333Ala/Lys334Ala (antibody)
heavy: EVQLVESGGGLVQPGGSLRLSCAVSGYSITSGYSWNWIRQAPGKGLEWVASIKYSGETKYNPSVKGRITISRDDSKNTFYLQMNSLRAEDTAVYYCARGSHYFGHWHFAVWGQGTLVTVSSASTKGPSVFPLAPSSKSTSGGTAALGCLVKDYFPEPVTVSWNSGALTSGVHTFPAVLQSSGLYSLSSVVTVPSSSLGTQTYICNVNHKPSNTKVDKKVEPKSCDKTHTCPPCPAPELLGGPSVFLFPPKPKDTLMISRTPEVTCVVVDVSHEDPEVKFNWYVDGVEVHNAKTKPREEQYNATYRVVSVLTVLHQDWLNGKEYKCKVSNKALPAPIAATISKAKGQPREPQVYTLPPSREEMTKNQVSLTCLVKGFYPSDIAVEWESNGQPENNYKTTPPVLDSDGSFFLYSKLTVDKSRWQQGNVFSCSVMHEALHNHYTQKSLSLSPGK
light: B1 light
notes: also called IG2 110
- ratio of binding of the variant to that of native IgG1 [10]: 1.11 ratio (variant/native IgG1)
- ratio of binding of the variant to that of native IgG1 [11]: 3.42 ratio (variant/native IgG1)
- ratio of binding of the variant to that of native IgG1 [12]: 1.51 ratio (variant/native IgG1)
- ratio of binding of the variant to that of native IgG1 [13]: 2.17 ratio (variant/native IgG1)
- ratio of binding of the variant to that of native IgG1 [14]: 1.65 ratio (variant/native IgG1)
